Measurements from doi:10.1101/2021.04.01.437942 (bioRxiv, 2021).

Molecular target: SARS-CoV-2 RBD, truncated version (residues 333–529) (SARS-CoV-2, UniProt P0DTC2)
Assay: crystal structure
Details: both partners purified

B1: COVA1–16 Fab (Fab, V domains shown)
VH: QVQLVQSGAEVKKPGASVKVSCKASGYTFTSYYMHWVRQAPGQGLEWMGIINSSGGSTSYAQKFQGRVTMTRDTSTSTVYMELSSLRSEDTAVYYCARPPRNYYDRSGYYQRAEYFQHWGQGTLVTVSS
VL: DIQLTQSPSSLSASVGDRVTITCQASQDISNYLNWYQQRPGKAPKLLIYDASNLETGVPSRFSGSGSGTDFTFTISSLQPEDIATYYCQQYDNPPLTFGGGTKLEIK
notes: also called Fab COVA1–16
Q: Does B1 bind?
A: Result: binds
